The values below come from publication PMC5577056 (Scientific Reports, 2017).

Changes are numbered by the printed parent chain. In names and notes the source's numbering stands.

Settings in all cases: both partners purified
The target in assay [1] is T1, lysozyme (Gallus gallus (hen egg white), by PDB …, UniProt P00698).
T1 construct: lysozyme, the antigen of the anti-lysozyme antibody HyHEL-10; also called antigen
Nature of the assay: ITC; antibody (about 30 uM) titrated into lysozyme (about 2 uM), 25 injections of 10 ul; PBS (20 mM, pH 7.4), 143 mM NaCl; 298 K (25 °C). (In general: In ITC the heat of successive injections is recorded.)

In assay [2] the target is T1, lysozyme. In words: ITC; antibody (about 30 uM) titrated into lysozyme (about 2 uM), 25 injections of 10 ul; PBS (20 mM, pH 7.4), 143 mM NaCl; 303 K (30 °C).
For assay [3], the target named is T1, lysozyme. In words: ITC; antibody (about 30 uM) titrated into lysozyme (about 2 uM), 25 injections of 10 ul; PBS (20 mM, pH 7.4), 143 mM NaCl; 293 K (20 °C).
In assay [4] the target is T1, lysozyme. The description is as above. The source holds these as a separate data set.

T1 sequence (P00698 19-147): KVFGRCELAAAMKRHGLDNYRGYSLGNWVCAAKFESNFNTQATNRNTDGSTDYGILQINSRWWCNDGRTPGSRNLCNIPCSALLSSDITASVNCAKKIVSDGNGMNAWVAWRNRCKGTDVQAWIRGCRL

B1: HyHEL-10 Fv fragment, H:R71A mutant (antibody, V domains shown)
VH: DVQLQESGPSLVKPSQTLSLTCSVTGDSITSDYWSWIRKFPGNRLEYMGYVSYSGSTYYNPSLKSRISITADTSKNQYYLDLNSVTTEDTATYYCANWDGDYWGQGTLVTVSA
VL: DIVLTQSPATLSVTPGNSVSLSCRASQSIGNNLHWYQQKSHESPRLLIKYASQSISGIPSRFSGSGSGTDFTLSINSVETEDFGMYFCQQSNSWPYTFGGGTKLEIK
notes: as the VH of m1, with R71A; as the VL of m1; Fv fragment; the text throughout has H:R71A
With B1, the results for the dH in assay [1], in assay [2] and in assay [3] were -27.1 ± 0.086 kcal/mol, -31.1 ± 0.347 kcal/mol and -23.78 ± 0.0598 kcal/mol, respectively.

B2: HyHEL-10 Fv fragment, L:R45A mutant (antibody, V domains shown)
VH: B1 VH with A71R
VL: B1 VL with R45A
notes: as the VH of m1; as the VL of m1, with R45A; Fv fragment; the text throughout has L:R45A
Take B2: the dH in assay [1] is -17.57 ± 0.0359 kcal/mol; in assay [2], -18.97 ± 0.055 kcal/mol; in assay [4], -16.46 ± 0.0502 kcal/mol.
